Assay results: patent US7521540B2, “CYR61 compositions and methods” (Munin Corporation, priority 1996, dated 2009)

Experiments:
HUVE cells = assay: HUVE cell attachment to murine Cyr61-coated plates; type: cell-based, human
Description: Another embodiment of the invention is directed to the use of Cyr61 to mediate cellular attachment to the extracellular matrix. Induction of cellular adhesion was investigated using murine Cyr61, fibronectin, and bovine serum albumin (BSA). Immunological 96-well plates (Falcon brand) were coated with 50 μl of 0.1% BSA in PBS at 4° C. in the presence of 0-30 μg/ml concentrations of murine Cyr61 or fibronectin. After two hours exposure to the coating solution, non-diluted immune or pre-immune antisera (30 μl/well), or affinity-purified anti-Cyr61 antibodies were added. For some wells, the coating mixture was adjusted to 10 mM DTT or 100 mM HCl. After 16 hours incubation, the coating solution was removed and the well surface was blocked with 1% BSA in phosphate-buffered saline (PBS) for 1 hour at room temperature. HUVE cells were plated in Ham's complete F12K medium [GIBCO-BRL, Inc.; Ham, Proc. Natl. Acacd. Sci. (USA) 53:786 (1965)] at 5×10^3-10^4 cells/well. Cycloheximide was added to 100 μg/ml immediately before plating and monensin was added to 1 μM 14 hours before plating. After a 2-hour incubation at 37° C., the wells were washed with PBS and attached cells were fixed and stained with methylene blue. The attachment efficiency was determined by quantitative dye extraction and measurement of the extract absorbance at 650 nm. Oliver et al., J. Cell. Sci. 92:513-518 (1989).

NIH 3T3 cells = assay: Fibroblast chemotaxis, modified Boyden chamber; type: cell-based, mouse
From the text: Cyr61 also affects chondrocytes, e.g., […] involved in skeletal development. In particular, Cyr61 influences the development, and perhaps maintenance, of cartilage, in contrast to the variety of growth-related proteins that exclusively influence development and maintenance of the bony skeleton. The chemotactic response of NIH 3T3 cells to murine Cyr61 was examined using a modified Boyden chamber (Neuroprobe Inc., catalog no. AP48). Grotendorst, Meth. Enzymol. 147:144-152 (1987). Purified Cyr61 protein was serially diluted in DMEM containing bovine serum albumin (BSA; 0.2 mg/ml) and added to the lower well of the chamber. The lower well was then covered with a collagen-coated polycarbonate filter (8 μm pore diameter; Nucleopore Corp., Pleasanton, Calif.). Cells (6×10^4) were then loaded into the upper well. After 5 hours incubation (10% CO2, 37° C.), the filter was removed and the cells were fixed and stained using Wright-Giemsa stain (Harleco formulation; EM Diagnostic Systems, Gibbstown, N.J.). Cells from the upper surface of the filter were then removed by wiping with a tissue swab. The chemotactic response was determined by counting the total number of migrating cells detected in ten randomly selected high-power microscopic fields (400-fold magnification) on the lower surface of the filter. Duplicate trials were performed for each experiment and the experiment was repeated three times to ensure reproducibility of the data.

Limb mesenchymal cells = assay: Limb mesenchymal cell proliferation in micromass culture; type: cell-based, mouse
Description: Ahrens et al., Dev. Biol. 60:69-82 (1977), has reported that these cells, in micromass culture, undergo chondrogenesis in a manner similar to the in vivo process. Mesenchyme cells were obtained from mouse embryonic limb buds by trypsin digestion (1 mg/ml, 1:250 dilution of porcine pancreatic trypsin, Sigma Chemical Co.). Cells were explanted in plastic tissue culture wells and allowed to attach for 2 hours at 37° C., 5% CO2. Cells were then incubated for 24 hours at 37° C., 5% CO2 in MEM with 10% FBS, penicillin (50 U/ml), and streptomycin (50 μg/ml). At this point, the composition of the medium was changed by substituting 4% NuSerum (Collaborative Biomedical Products, Inc.) for 10% FBS. Individual cultures then received Cyr61, fibronectin, heparin (each at approximately 1 μg/ml) or buffer as a negative control. […] Harlow et al.
Cell proliferation during the 4 day culture period was determined by counting cell number and by incorporation of [^3H]-thymidine. To determine cell number, cells were harvested by trypsin/EDTA (Sigma) and counted with a Coulter counter. In parallel cultures, [^3H]-thymidine (1 μCi/ml; ICN) was added to the media for 18 hours and incorporation in the TCA-insoluble layer was determined by liquid scintillation counting.

[1] = system: 1064SK primary human foreskin fibroblasts; assay: Fibroblast adhesion assay (methylene blue, A620); type: cell-based
Description: The ability of Cyr61 to mediate cell adhesion in normal fibroblasts was investigated. Microtiter wells were coated with purified recombinant Cyr61 protein, and 1064SK primary human foreskin fibroblasts were allowed to adhere under serum-free conditions. […] 50 μl cell suspensions were plated on microtiter wells coated with varying concentrations (0.5-5.0 μg/ml) of Cyr61 protein. After incubation at 37° C. for 30 minutes, adherent cells were fixed and stained with methylene blue.
In another experiment, microtiter wells were coated with either BSA, Cyr61 (2 μg/ml), or vitronectin (VN; 0.5 μg/ml) and blocked with affinity-purified anti-Cyr61 antibodies for one hour at 37° C. before 1064SK cells were plated.
The effects of divalent cations in cell adhesion to Cyr61 was also investigated. […] Data are means from triplicate determinations. […] Inhibition by Ca^2+ is characteristic of adhesion through some members of the β1 family of integrins, including receptors that bind type I collagen, laminin, and vitronectin (integrins α2β1, α6β1, and αVβ1) in fibroblasts, as well as the lymphocyte-specific integrin αLβ2.
The effects of RGD peptides on Cyr61-mediated fibroblast binding was tested by plating cells in wells coated with Cyr61 (2 μg/ml). Type I collagen (2 μg/ml) or vitronectin (0.5 μg/ml), 2 mM GRGDSP or GRGESP peptide was then added.
Cells were also pre-incubated with 40 μg/ml monoclonal antibodies against the integrin α5 or the integrin αV subunits at room temperature for 30 minutes, then plated on wells coated with Cyr61 (2 μg/ml), vitronectin (0.5 μg/ml) or fibronectin (FN, 1 μg/ml). […] The data are means, representative of three experiments.
The 1064 SK cells were also analyzed using the monoclonal antibody JBIA, which binds the β1 integrin subunit. Cells were pre-incubated with the antibody (50 μg/ml) before plating on microtiter wells coated with Cyr61 (2 μg/ml), Type I collagen (2 μg/ml), or vitronectin (0.5 μg/ml). […] Data are means, representative of three experiments.
To identify the specific β1 integrin that mediates fibroblast adhesion to Cyr61, the inhibitory effects of function-blocking monoclonal antibodies were tested against various integrin α subunits. […] The data are means, representative of at least three experiments.

B1: Cyr61: Cysteine-rich ECM signaling protein; murine sequence SEQ ID NO:2, recombinant from Baculovirus-infected Sf9 cells (protein, listed as Mus musculus)
chain: MSSSTFRTLAVAVTLLHLTRLALSTCPAACHCPLEAPKCAPGVGLVRDGCGCCKVCAKQLNEDCSKTQPCDHTKGLECNFGASSTALKGICRAQSEGRPCEYNSRIYQNGESFQPNCKHQCTCIDGAVGCIPLCPQELSLPNLGCPNPRLVKVSGQCCEEWVCDEDSIKDSLDDQDDLLGLDASEVELTRNNELIAIGKGSSLKRLPVFGTEPRVLFNPLHAHGQKCIVQTTSWSQCSKSCGTGISTRVTNDNPECRLVKETRICEVRPCGQPVYSSLKKGKKCSKTKKSPEPVRFTYAGCSSVKKYRPKYCGSCVDGRCCTPLQTRTVKMRFRCEDGEMFSKNVMMIQSCKCNYNCPHPNEASFRLYSLFNDIHKFRD
HUVE cell attachment, A650 (HUVE cells; coating 1 μg/ml): 0.1 A650
HUVE cell attachment, A650 (HUVE cells; coating 30 μg/ml): 0.8 A650
optimal concentration for the chemotactic activity (NIH 3T3 cells): 1 to 5 µg/mL
migrating cells per high-power field (NIH 3T3 cells; 0.5 μg/ml): about 5.2 cells
average number of migrating cells detected per field (NIH 3T3 cells; 1 μg/ml): 7.5 cells
average number of migrating cells detected per field (NIH 3T3 cells; 5 μg/ml): 18.5 cells
average number of migrating cells detected per field (NIH 3T3 cells; 10 μg/ml): 18.7 cells
cell number and DNA synthesis (Limb mesenchymal cells): both increased cell number and enhanced DNA synthesis after 2 and 3 days in culture
coating concentration at which maximal adhesion was reached [1]: 1 µg/mL
inhibition by anti-α6 antibody of binding mediated by the coated protein ([1]; anti-α6 20 μg/ml): 78%
1064SK adhesion, absorbance ([1]; coating 0.5 μg/ml): about 0.3 A620
1064SK adhesion, absorbance ([1]; coating 1-5 μg/ml): 0.45-0.55 A620
support of 1064SK fibroblast adhesion ([1]; protein coated on wells): dose-dependent and saturable
